Values quoted from earlier work, collected in publication PMC5992718.

Target: PD-L1 (Homo sapiens) (UniProt Q9NZQ7)
Chain of UniProt Q9NZQ7 (Q9NZQ7 19-238): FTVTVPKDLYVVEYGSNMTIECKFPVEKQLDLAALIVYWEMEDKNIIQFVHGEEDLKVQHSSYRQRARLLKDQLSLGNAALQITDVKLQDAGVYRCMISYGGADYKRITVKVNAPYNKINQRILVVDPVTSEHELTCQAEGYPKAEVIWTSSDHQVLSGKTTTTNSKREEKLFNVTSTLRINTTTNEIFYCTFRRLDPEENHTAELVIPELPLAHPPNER

Kd: 29.8 µM
Substance: PD-1 (from UniProt Q02242)
